Measurements from patent US20130196320A1, “METHOD FOR IMPROVING CLEAVAGE OF DNA BY ENDONUCLEASE SENSITIVE TO METHYLATION” (CELLECTIS, priority 2010, published 2013).
Like-named read-outs stand apart in the source and are kept apart here.

Biological target: ADCY9.1 DNA target
Assay: In vitro binding assay, fluorescence anisotropy of fluorescein-labeled ADCY9.1 duplex
Protocol: FIG. 12: Spectrofluorimetric titration of fluorescein-labeled ADCY9.1 by ADCY9. 50 nM of ADCY9.1 duplex was incubated with increasing concentrations of ADCY9 (from 0 to 1.5 μM) in binding buffer (10 mM Tris-HCl, 150 mM NaCl, 10 mM CaCl2, 10 mM DTT, pH8) at 25° C. After 30 minutes incubation, the fluorescence anisotropy of the mixture was recorded with a Pherastar Plus (BMG Labtech) operating in fluorescence polarization end point mode with excitation and emission wavelengths set to 495 and 520 nm respectively. Normalized fluorescence anisotropy is plotted as a function of ADCY9 concentration. Apparent dissociation constant were determined by fitting raw data by an hyperbolic function (Ax=(A∞*[Meganuclease])/(Kd+[Meganuclease]) with Ax, the fluorescence anisotropy value obtained at a given meganuclease concentration, A∞ the fluorescence anisotropy value obtained at saturating concentration of meganuclease and Kd the dissociation constant of the equilibrium studied).
Fluorescein labeled C1234 oligonucleotides were synthesized and HPLC-purified by Eurogentec. […] C 1234 duplex and fluorescein final concentrations were assessed by spectrophotometry using their respective extinction coefficients ε260nm=62900 M^−1 cm^−1 and ε495nm=83000 M^−1 cm^−1. […]

Kd (ADCY9.1_Me −3a/−2b (fully methylated), sigmoidal pattern, read-out: Kd (apparent)): 0.431 ± 0.03 µM
Kd (unmethylated ADCY9.1, read-out: Kd): 0.19 ± 0.019 µM
B1: ADCY9: engineered meganuclease (SEQ ID NO: 3) designed to cleave adenylate cyclase 9 gene (protein)
chain: MANTKYNEEFLLYLAGFVDGDGSIIAQIKPNQSYKFKHQLSLTFRVTQKTQRRWFLDKLVDEIGVGYVRDSGSVSNYDLSEIKPLHNFLTQLQPFLELKQKQANLVLKIIEQLPSAKESPDKFLEVCTWVDQVAALNDSKTRKTTSETVRAVLDSLSEKKKSSPAAGGSDKYNQALSKYNQALSKYNQALSGGGGSNKKFLLYLAGFVDSDGSIIAQIKPDQSYKFKHQLGLTFQVTQKTQRRWFLDKLVDRIGVGYVRDRGSVSDYILSEIKPLHNFLTQLQPFLKLKQKQANLVLKIIEQLPSAKESPDKFLEVCTWVDQVAALNDSKTRKTTSETVRAVLDSLSEKKKSSP
